Results from patent publication US10227388B2, “Peptides and combination of peptides for use in immunotherapy against non-small cell lung cancer and other cancers” (immatics biotechnologies GmbH, priority 2015, dated 2019).

Target: HLA-A*02:01 (Homo sapiens, UniProt P04439, D140Y/D185E/D98H/E176V/E277Q/G131W/G231S/I119V/I121R/I166T/I218V/L300P/L318F/N151K/N90K/P208A/P217A/Q86G/Q94H/R138H/R169H/T345S)
Experiment: MHC binding assay (UV-ligand exchange, ELISA, peptide exchange yield)
Settings: binding of HLA-class I restricted peptides to HLA-A*02:01
How it was run: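 Peptide–HLA-A*02:01 complexes made by UV-ligand exchange of a UV-cleavable peptide for the test peptide. Exchange yield measured by ELISA: 100-fold diluted monomers captured on streptavidin, 1 h at 37° C., detected with HRP anti-β2m and TMB, absorbance at 450 nm.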

Row | Substance | Peptide exchange (MHC class I binding score, peptide exchange yield)
1 | 316 (ILLERLWYV; listed as Homo sapiens) [compound 316] | ″+++″ (≥50% = +++)
2 | 317 (SLAALVVHV; listed as Homo sapiens) [compound 317] | ″+++″ (≥50% = +++)
3 | 318 (GLINTGVLSV; listed as Homo sapiens) [compound 318] | ″++″ (≥20% = ++)
4 | 320 (KMFEFVEPLL; listed as Homo sapiens) [compound 320] | ″++++″ (≥75% = ++++)
5 | 321 (GLFEDVTQPGILL; listed as Homo sapiens) [compound 321] | ″++++″ (≥75% = ++++)
6 | 322 (TLMTSLPAL; listed as Homo sapiens) [compound 322] | ″+++″ (≥50% = +++)
7 | 324 (FLYDEIEAEV; listed as Homo sapiens) [compound 324] | ″+++″ (≥50% = +++)
8 | 325 (FIMPATVADATAV; listed as Homo sapiens) [compound 325] | ″+++″ (≥50% = +++)
9 | 326 (FLPEALDFV; listed as Homo sapiens) [compound 326] | ″+++″ (≥50% = +++)
10 | 327 (GLAPFTEGISFV; listed as Homo sapiens) [compound 327] | ″+++″ (≥50% = +++)
11 | 328 (ALNDQVFEI; listed as Homo sapiens) [compound 328] | ″+++″ (≥50% = +++)
12 | 329 (FLVTLNNVEV; listed as Homo sapiens) [compound 329] | ″++++″ (≥75% = ++++)
13 | 330 (QLALKVEGV; listed as Homo sapiens) [compound 330] | ″+++″ (≥50% = +++)
14 | 331 (KVDTVWVNV; listed as Homo sapiens) [compound 331] | ″+++″ (≥50% = +++)
15 | 332 (YLISELEAA; listed as Homo sapiens) [compound 332] | ″+++″ (≥50% = +++)
16 | 333 (FLPDANSSV; listed as Homo sapiens) [compound 333] | ″++″ (≥20% = ++)
17 | 334 (TLTKVLVAL; listed as Homo sapiens) [compound 334] | ″+++″ (≥50% = +++)
18 | 335 (YSLSSVVTV; listed as Homo sapiens) [compound 335] | ″+++″ (≥50% = +++)
19 | 336 (ILLTAIVQV; listed as Homo sapiens) [compound 336] | ″+++″ (≥50% = +++)
20 | 337 (HLLSELEAAPYL; listed as Homo sapiens) [compound 337] | ″++++″ (≥75% = ++++)
21 | 339 (GLWEIENNPTVKA; listed as Homo sapiens) [compound 339] | ″++++″ (≥75% = ++++)
22 | 340 (ALLSMTFPL; listed as Homo sapiens) [compound 340] | ″++++″ (≥75% = ++++)

Row | Substance | Peptide exchange (MHC class I binding score, peptide exchange yield)
23 | 341 (SQIALNEKLVNL; listed as Homo sapiens) [compound 341] | ″+++″ (≥50% = +++)
24 | 342 (HIYDKVMTV; listed as Homo sapiens) [compound 342] | ″+++″ (≥50% = +++)
25 | 343 (SLLEVNEESTV; listed as Homo sapiens) [compound 343] | ″+++″ (≥50% = +++)
26 | 344 (YLQDQHLLLTV; listed as Homo sapiens) [compound 344] | ″+++″ (≥50% = +++)
27 | 345 (VIWKALIHL; listed as Homo sapiens) [compound 345] | ″+++″ (≥50% = +++)
28 | 346 (LLDSKVPSV; listed as Homo sapiens) [compound 346] | ″+++″ (≥50% = +++)
29 | 347 (SLFKHDPAAWEA; listed as Homo sapiens) [compound 347] | ″++++″ (≥75% = ++++)
30 | 348 (ILLDVKTRL; listed as Homo sapiens) [compound 348] | ″++++″ (≥75% = ++++)
31 | 349 (SLTEYLQNV; listed as Homo sapiens) [compound 349] | ″++++″ (≥75% = ++++)
32 | 350 (ALLDVTHSELTV; listed as Homo sapiens) [compound 350] | ″+++″ (≥50% = +++)
33 | 351 (SLIPNLRNV; listed as Homo sapiens) [compound 351] | ″+++″ (≥50% = +++)
34 | 352 (SLLELLHIYV; listed as Homo sapiens) [compound 352] | ″+++″ (≥50% = +++)
35 | 353 (YLFEMDSSL; listed as Homo sapiens) [compound 353] | ″++″ (≥20% = ++)
36 | 354 (LILEGVDTV; listed as Homo sapiens) [compound 354] | ″++″ (≥20% = ++)
37 | 355 (SIQQSIERLLV; listed as Homo sapiens) [compound 355] | ″++″ (≥20% = ++)
38 | 356 (KLLGKLPEL; listed as Homo sapiens) [compound 356] | ″+++″ (≥50% = +++)
39 | 357 (SMHDLVLQV; listed as Homo sapiens) [compound 357] | ″+++″ (≥50% = +++)
40 | 358 (ALDEYTSEL; listed as Homo sapiens) [compound 358] | ″++++″ (≥75% = ++++)
41 | 359 (YLLPESVDL; listed as Homo sapiens) [compound 359] | ″+++″ (≥50% = +++)
42 | 361 (ALYELEGTTV; listed as Homo sapiens) [compound 361] | ″+++″ (≥50% = +++)
43 | 362 (TLYGLSVLL; listed as Homo sapiens) [compound 362] | ″+++″ (≥50% = +++)
44 | 363 (KVLDVSDLESV; listed as Homo sapiens) [compound 363] | ″++″ (≥20% = ++)

Row | Substance | Peptide exchange (MHC class I binding score, peptide exchange yield)
45 | 364 (LLQNEQFEL; listed as Homo sapiens) [compound 364] | ″+++″ (≥50% = +++)
46 | 365 (YVIDQGETDVYV; listed as Homo sapiens) [compound 365] | ″+++″ (≥50% = +++)
47 | 366 (RLLDMGETDLML; listed as Homo sapiens) [compound 366] | ″+++″ (≥50% = +++)
48 | 367 (SLQNHNHQL; listed as Homo sapiens) [compound 367] | ″+++″ (≥50% = +++)
49 | 369 (GLFPEHLIDV; listed as Homo sapiens) [compound 369] | ″+++″ (≥50% = +++)
50 | 370 (SLLQDLVSV; listed as Homo sapiens) [compound 370] | ″+++″ (≥50% = +++)
51 | 371 (FLQAHLHTA; listed as Homo sapiens) [compound 371] | ″++++″ (≥75% = ++++)
52 | 372 (TMLLNIPLV; listed as Homo sapiens) [compound 372] | ″++″ (≥20% = ++)
53 | 373 (SLLEDKGLAEV; listed as Homo sapiens) [compound 373] | ″++″ (≥20% = ++)
54 | 374 (FLLQQHLISA; listed as Homo sapiens) [compound 374] | ″++″ (≥20% = ++)
55 | 375 (SLTETIEGV; listed as Homo sapiens) [compound 375] | ″++″ (≥20% = ++)
56 | 376 (AMFESSQNVLL; listed as Homo sapiens) [compound 376] | ″++″ (≥20% = ++)
57 | 377 (FLLDSSASV; listed as Homo sapiens) [compound 377] | ″++″ (≥20% = ++)
58 | 378 (ALGYFVPYV; listed as Homo sapiens) [compound 378] | ″+++″ (≥50% = +++)
59 | 379 (IMEGTLTRV; listed as Homo sapiens) [compound 379] | ″++″ (≥20% = ++)
60 | 380 (TLIEDEIATI; listed as Homo sapiens) [compound 380] | ″++″ (≥20% = ++)
61 | 381 (FIDEAYVEV; listed as Homo sapiens) [compound 381] | ″++″ (≥20% = ++)
62 | 382 (ALQNYIKEA; listed as Homo sapiens) [compound 382] | ″++″ (≥20% = ++)
63 | 383 (ALLELENSVTL; listed as Homo sapiens) [compound 383] | ″+++″ (≥50% = +++)
64 | 385 (SLLEQGLVEA; listed as Homo sapiens) [compound 385] | ″++″ (≥20% = ++)
65 | 386 (ILFRYPLTI; listed as Homo sapiens) [compound 386] | ″+++″ (≥50% = +++)
66 | 387 (ALFQATAEV; listed as Homo sapiens) [compound 387] | ″++++″ (≥75% = ++++)
